Paper PMC8196545 (Cell reports, 2021)
Changes are numbered by the printed parent chain.

B1: c13230 (antibody, V domains shown)
VH: QVQLVESGGGVVQPGKSLKLSCATSGFNFSTFGIHWVRQAPGKGLEWLTVISYDGSEKFYGESVKGRFTISRDTSKKTVFLQIKSLKTEDTAVYYCAKDRAENRVSTSPLGMYYYFGMDVWGQGTTVIVSS
VL: EIMMTQSPATLSASPGEGVTLSCRASQSVSNDFAWYQQTPGQSPKLLFYDAYTRATGVPARFSVNGSGTDFTLTINSLQSEDFASYYCLQYHKWPPYSFGQGTKLGIK
B2: c4302 (antibody, V domains shown)
VH: QVLLEQSGGEMKKPGASLKVSCQASGYRFTNYGMSWVRQARGQGLEWMGWISAYNGKTIYAQRFQGRVTLTTDTSTRTAYLELRSLTSDDTAVYFCTRSQTYYFDSSDFYDGKYFDYWGQGTLVTVSS
VL: AIQLTQSPSSLSASVGDRVTLTCRASQGISNALAWYQQKPGESPKLLIHAASSLESGVPSRFSGSGSGTDFTLTISGLQAEDFATYYCQQFNSFPLTFGPGTRLEIK
B3: c8537 (antibody, V domains shown)
VH: QVHLVESGGGVVQPGKSLRLSCTSSGFTFSNYGFHWVRQAPGKGLEWVSFISNDGSNHFYTQSLRGRFTISRDNSKGTLYLEMNSLRSEDTAIYYCARDLYSRYRGYYDDLTGENHGNFDYWGLGTLVTVSA
VL: NFLLSQSLSVSESPGKTVTISCTRSSGNIASNSVQWYQLRPGSSPTTLIYKNRQRPSGISDRFSGSVDTSSNSASLIISGLKTDDEADYYCQSFDNVNQEWVFGGGTKVTVL
B4: c11031 (antibody, V domains shown)
V domain 1: EVRLDQSGAEMRKTGTSVRLSCTISGHTTSDFFIHWVKQAPQRGPQWMGLINVEDENVIFAEGFQGRISIGADTSRTTVFLDLTHLTVEDMALYFCTTHTLEKDTGDYVAAFDSWGHGTFLSVSS
V domain 2: QSVLTQPPSVSAVPGQKVIISCSGRTSNIGTNFVSWYQQFPGAAPKLLIYDTSHRPSGISDRFSASKSDTSATLAITALQPGDEAEYYCGAWDSGLNPAVFVFGSGTRVFVL
B5: c10927 (antibody, V domains shown)
V domain 1: EVRLDQSGTEMRKPGTRVRLSCKVSGHTTSDFFVHWVQQAPQRGPQWMGLINVEDENVIYADIFQGRISIVADTSKKTVFLDLTDLTFEETAIYFCATHTLQKDTGDYVAAFDSWGQGTLLYVSS
V domain 2: B4 V domain 2 with T52N, S53F, H54N, P81A
B6: c10868 (antibody, V domains shown)
V domain 1: B4 V domain 1 with R12G, I24V, R76K, V88F, A110S, H117Q
V domain 2: B4 V domain 2 with S53F
B7: c10920 (antibody, V domains shown)
V domain 1: EVRLDQSGAEMRKPGTSVRLSCTVSGHRTNDFFIHWVKQDPQRGPLWMGLINVEDENAIYAQEFQGRISIVADSSKTTVFLDLSHLKFEDTALYLCTTHTLEKETGDYVAAFDSWGQGTFLSVSS
V domain 2: B4 V domain 2 with S53F, A91S
B8: c9370 (antibody, V domains shown)
VH: EVQLVESGGGVVQPGGSLRLSCAASGFTFYSHTMIWVRQAPGKGPQYISHISSTGSNKDYSDSVKGRFTVSRDNDKNSLYLQMDSLRVEDTAIYYCARRSCSLTDCFVRSFSYDMDVWGQGTAVTVSS
VL: QSALTQPASMSGSPGQSISISCTGTTSDIGGYDSVCWYRQHPGEAPTLLIYDVSNRPSGVSGRFSGSKSANTASLTISGLQAEDEADYYCSSYSTGSSLVVFGGGTKLTVI
B9: c9603 (antibody, V domains shown)
VH: EVHLLQSAAEVKKPGSTVKVSCKVSGYTFTDYFLHWIQQTPERGLLWMGFVDPDSGVTVYAENFQGRITMTADTSSDTVYLEISSLTSEDAAVYYCATGSHSYPDTDGNPVYVMAFQYWGQGTLVSVSS
VL: DIVMTQSPDSLGVSLGETATVKCKSSQSILYSSDNKNYLAWYQQKPGQPPKLLIYWASTRESGVPDRFSGSGSETDFTLTINNVQAEDVAVYYCQQYSESPPTFGGGTKVDFK
B10: c9369 (antibody, V domains shown)
VH: QVQLVQSGAEVKKPGSSVKVSCKASGGSFSDFGISWVRQAPGQGLEWMGGIIPGFETANYGQDFQGRVTMTADESTGTAYMEVRRLRSEDTAVYYCATTGQQNDYYSSGASYKLNYYFGLDVWGQGTAVSVSS
VL: QSVLTQPPSSSGTPGQRVTISCSGSSSNIGSNTVNWYQQLPGTAPKVVISANHQRPSGVPDRFSASKSGASASLAISGLQSEDEADYYCAAWDDSRNAWVFGGGTKLTVL
B11: c9416 (antibody, V domains shown)
VH: B10 VH with K12R, V83L, A110L, F118L
VL: B10 VL with T33S, T43A
B12: c5296 (antibody, V domains shown)
VH: QVHLQESAPTLVKTSETLSLTCTVSGGQFYPYFYSWIRQSPGGKLQWIGRKYSTTGSMRTNPSLHTRVGMPLDHSRSQIGLTLSSITAADTGIYYCVRDIMRDFDSVDGSGGVYGGVDVWGRGTTVTVSS
VL: QFLLTQPHSVSGSPGKTITISCTRSDGTFARNSVRWYLQRPGEGPTTVFFDGNRRASGIPDRFSASIAVSSASASLTISGLTPEDEADYYCESSDGGHHVVFGGGTKVTVL
B13: c6486 (antibody, V domains shown)
VH: QPQMIQSGIEVKQPGAAVKVRCKPSGYWFIACGISWVRQAPGRGLEWLGWVYPYNGKVNHAQKFRGRVTLTADRSTETAYMELKSLTSDDTAIYYCARDSEQYDAAMPNYFTQYGMDVWGQGTTVIVSS
VL: EIVLTQSPGTLSLSPGETAALSCRSSQAFTDKGLAWYKQRPGQPPSLFVYGVSKRAAGVPDRVTGSGSGTEYTLTIGRLEPEDSGLYFCQQYHDPARTFGQGTKLEIK
B14: c10859 (antibody, V domains shown)
VH: AGHLVESGGKLIRPGGSLSLSCVASGFTFRNAYLTWVRHIPGKGLEWVAHMKSHADGSHTDYSASVQGRCAISRDDSASTLYLHISNLRLDDTGVYYCVHLSTPDEWGHGTPVIVSS
VL: DVVLTQYPVTLSGSQGDTVALSCRASESLTSHLAWYQQRDGQRPRLLIYDTSHRPPATPPRFSASGSGTDFTLIITSLEPEDSAVYFCQQRDFWPFSFGQGTKLDIT
B15: c5250 (antibody, V domains shown)
VH: QVRLEQWGPGLLKPSETLSLTCAVHGESFDDYSWTWIRHTPSLGLQWIGEIRPFGEIVHKSSLSGRLSFSRDTSKRQVYLKLASVTAADAGVYFCARGPVIYQLPHFYYRGYNVWGQGTTVTVSA
VL: DLVVTQSPRSLPVTPGESATIFCRSSQSLRHDNGMHYLDWYLQKPGQSPQLLIYLTSNRASGVSDRFSGSGSGTEFTLKISRVEADDVGIYYCMQAIQDPRVFGQGTRLEIK
B16: c5478 (antibody, V domains shown)
VH: B15 VH with E5Q, E16D, D30H, H39Q, Y79S, K81R, A83T, Q103H, H106D
VL: B15 VL with L2V, P12R, D32A, S64P, I90M
B17: c22674 (antibody, V domains shown)
VH: QVQLVQSGPEVKKPGTSVKVSCKASGYTFSNYAICWVRQAPGQGLEWVGATSAYNDETSYAQKFQGRVTVTRDSSTSTAYLELRSLRSEDSAVYYCARGGYYESSGSDASDYYAMDVWGQGTTVTVSS
VL: SYELTQPPSVSVSLGQMARITCSGDALSKKYVYWYQQKPGQVPVLVMYQDTERPSGIPERFSGSTSGTIVTLIIGGVQAEDEADYFCLSADDSGTYVVFGGGTKLTVL
B18: c13160 (antibody, V domains shown)
VH: QLHLQESGPGLVKPSETLFLTCTVSGGSMSSSSYYWVWIRQPPRGRDWSRIGSIYYTGSTLTTTHPWRVESLLSVDTSKNQFSLKMNSVTAADTARYYCASSGLYAFWGQGILVPVSS
VL: DAVVTQSPLVLPVTLGQPASISCRSNQSLLFGEGNTYLNWFQQRPGQSPRRLIHNISKRDSGVPDRFSGSGSGTDFTLEISRVEAEDVGVYYCMQGIHSPPTWTFGQGTKVEIK
B19: c11405 (antibody, V domains shown)
VH: EARLVESGGGRVQPGGSLRLSCEASGFRFSSYSFTWVRQSPGKGLEWLAKISASPFGRSQVNYAHSVEGRFTISRDNDRNSLRLQMNDLRGADTGVYYCARAPWQERSLDYNYAMDVWGQGTTVIVSS
VL: ELVLTQSPGTLSLSPGERATVSCRASQSLRRDSLAWYQQKPGHSPRLLIFAASNRVPGIPYRFSGTGSGTQFTLTIEKMEPEDFAVYYCQSYGSSPLYTFGQGTKLDIN
B20: c8540 (antibody, V domains shown)
VH: QVQLLQSGPEVKKPGASVKVSCKTSGYTFTSYAITWVRQAPGEGLEWLGWISPHSRTAKYAQKFQGRLTMTTDTSTATAYMDLRSLSPDDTAVYYCARRIYDWDIERARFDPWGQGTLVAVSS
VL: QSVLTQPPSVSADPGQRVTISCSGSSSNIGKNFVSWYQQLPGTAPKLVIYDNDRRPSGIPDRFSGSKSGTSATLGITGLQTGDEAAYYCATWDSGLNDGPVFGGGTRLTVL
B21: c7565 (antibody, V domains shown)
VH: QVRLEERGPGLVKPSETLSLVCGVSGYTMSGLWSTTYDWNWIRQSAGGRPEWIGRIYVGGPAQYNPAFKDRVAFSIDLSKNELSLTLTSVTAADSATYFCARGGDTFHPRYWYTMNIWGSGTKVIVSS
VL: DIQLTQSPSTVSASVGDRITMSCRANKSLDVWVAWFRRRPGKAPEHLIYRRDYVWGGLPSRFSGSGSGTEFTLTISSLQAGDFGTYYCHQYKDQPWTFGQGTRVDLK

Target: HIV-1 NL4-3 Env on infected cells (HIV-1 group M subtype B, NL4-3 (pNL4-3 …, strain))

Row | Binder | binding result
1 | B1 | binds
2 | B2 | binds
3 | B3 | binds
4 | B4 | binds
5 | B5 | binds
6 | B6 | binds
7 | B7 | binds
8 | B8 | binds
9 | B9 | binds
10 | B10 | binds
11 | B11 | binds
12 | B12 | binds
13 | B13 | binds
14 | B14 | binds
15 | B15 | binds
16 | B16 | binds
17 | B17 | binds
18 | B18 | binds
19 | B19 | binds
20 | B20 | binds
21 | B21 | binds
